Measured values as given in article PMC8159449.

Biological target: T1, retinoblastoma protein (RB) (Homo sapiens, UniProt P06400 1-928)
T1 sequence: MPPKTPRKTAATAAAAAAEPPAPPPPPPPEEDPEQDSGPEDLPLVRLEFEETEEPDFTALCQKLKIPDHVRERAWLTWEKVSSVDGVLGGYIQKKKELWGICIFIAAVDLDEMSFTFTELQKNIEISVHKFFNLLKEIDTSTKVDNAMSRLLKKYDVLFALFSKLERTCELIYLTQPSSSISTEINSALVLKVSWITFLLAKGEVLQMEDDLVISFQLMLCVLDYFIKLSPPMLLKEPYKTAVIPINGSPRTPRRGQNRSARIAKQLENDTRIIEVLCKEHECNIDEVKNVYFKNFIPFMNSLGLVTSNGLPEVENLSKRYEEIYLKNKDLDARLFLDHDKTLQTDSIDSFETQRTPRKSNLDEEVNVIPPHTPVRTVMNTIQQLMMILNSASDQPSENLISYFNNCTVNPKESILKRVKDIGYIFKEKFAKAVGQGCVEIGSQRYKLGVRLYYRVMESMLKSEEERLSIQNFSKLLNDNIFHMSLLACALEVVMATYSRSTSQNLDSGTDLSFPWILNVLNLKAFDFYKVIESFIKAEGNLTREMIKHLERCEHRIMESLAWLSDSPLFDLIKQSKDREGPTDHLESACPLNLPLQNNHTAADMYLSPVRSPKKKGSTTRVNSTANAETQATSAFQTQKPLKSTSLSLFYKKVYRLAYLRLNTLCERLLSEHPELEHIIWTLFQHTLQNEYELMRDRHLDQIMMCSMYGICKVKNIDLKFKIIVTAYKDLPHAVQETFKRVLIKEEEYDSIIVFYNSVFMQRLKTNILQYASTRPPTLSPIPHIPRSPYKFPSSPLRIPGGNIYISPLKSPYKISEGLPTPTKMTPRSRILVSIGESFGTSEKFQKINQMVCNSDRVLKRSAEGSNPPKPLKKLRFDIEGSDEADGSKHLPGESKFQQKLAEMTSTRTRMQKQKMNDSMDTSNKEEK
Assay: ELONA

GGAGGGUGGAGGGAAGGG (structured_RNA) [18E16] showed a Kd of 5.1 ± 0.7 nM.
